Measurements as given in patent US9464326B2, “Total and phosphorylated IL-1 receptor-associated kinase-1 and IL-1 receptor-associated kinase-4 as a biomarker for cancer progression and chemotherapy resistance” (University of Maryland, Baltimore, priority 2012, dated 2016).

Legend:
Format in all cases: cell-based, human
CCRF-CEM cells = assay: Cell number and apoptosis assays; conditions: IRAK-1,-4 inhibitor 0-20 μM plus titrated drug, apoptosis by 7AAD at 48 hours, FIG. 23
Procedure: (§1) TLR ligands were diluted 2-fold. Cell lines (25-40×10^3/well) were cultured for 54 hours, whereas fresh patient-derived T-ALL cells (200×10^3/well) were cultured for 30 hours prior to adding [^3H]-thymidine for 18 hours. After this time point, cells were harvested with a Packard Filter-Mate-96 cell harvester (Perkin Elmer, Waltham, Mass., USA) and counted on Packard Top Count-NXT (Perkin Elmer, Waltham, Mass., USA). Results were expressed as average counts per minute (cpm). In some experiments CCRF-CEM cells were pre-treated with TLR1-TLR2 ligand (Pam3CysK4; 2.5 ug/ml) for 48 hrs, washed, and then cultured in the presence of varying concentrations of FBS. Forty-eight hours later, proliferation (±SD) was determined by ^3H-thymidine incorporation. Alternatively, apoptosis was measured by flow cytometry after staining cells with Annexin-V (BD Pharmingen, San Diego, Calif., USA) and propidium iodide (Sigma). Cell number was counted under microscopy by staining cells with trypan blue.
CCRF-CEM cells were treated with IRAK-1,-4 inhibitor for 24, 48, 72, and 96 hours.
The T-ALL cell line CCRF-CEM was cultured in the presence of 0, 1.2, 5, 10, and 20 μM IRAK-1,-4 inhibitor. (FIG. 23). To each concentration of IRAK-1,-4 inhibitor titrating doses of ABT-737 (1000→15 nM) vincristine, VS (10→0.1 nM), and paclitaxol, PAC (100→1.5 nM). […] Apoptosis was measure 48 hours later by staining cells with 7AAD and analyzed by flow cytometry.

CEM-C1 = assay: Proliferation (3H-thymidine) of CEM-C1; conditions: 3H-thymidine uptake, 72 h
Text: (§2) CCRF-CEM, CEM/C1, CEM/C2, CEM-C7, Jurkat, Loucy, Molt-4, HSB-2, SUP-T1, Hut 78, HH, Hut 102, MO, and H9 T-leukemia and T-lymphoma cell lines were purchased from the American Type Culture Collection (Manassas, Va., USA). All of the cell lines were initially expanded and cryopreserved within one month of receipt. Cells were typically used for 6 months at which time a fresh vial of cryopreserved cells was used. Total T cells from healthy donors were isolated via negative selection followed by positive selection using a CD3+ selection kit (Invitrogen, Carlsbad, Calif.). T cells were isolated from patients with T-ALL bone marrow or peripheral blood samples containing more than 70% leukemia cells using a CD2+ isolation kit (STEMCELL Technologies, Vancouver, Canada). All tissues were collected under institutional IRB-approved protocols and all participants gave written informed assent/consent. For in vitro experiments, T-ALL cells were cultured in AIM-V medium supplemented with 20% human AB serum in the presence of recombinant human stem cell factor (50 ng/mL; Amgen, Thousand Oaks, Calif.), insulin (20 nM; Sigma-Aldrich, St Louis, Mo., USA) and IL-7 (50 ng/mL; R&D Systems, Minneapolis, Minn., USA). In other experiments, protein lysate was collected using the Full Moon Biosystems (Sunnyvale, Calif., USA) buffer prior to protein examination by western blot or protein array.
as §1, with “Cells were cultured in a 96-well plate (Corning Costar, Corning, N.Y., USA) with various concentrations of TLR ligands 1-9, starting at 10 μg/ml, in a final volume of 200 ul. TLR ligands” for “TLR ligands”, “trypan blue. […]” for “trypan blue.”

Loucy = assay: Proliferation (3H-thymidine) of Loucy; conditions: 3H-thymidine uptake, 72 h
Text: as §2
as §1, with “Cells were cultured in a 96-well plate (Corning Costar, Corning, N.Y., USA) with various concentrations of TLR ligands 1-9, starting at 10 μg/ml, in a final volume of 200 ul. TLR ligands” for “TLR ligands”, “trypan blue. […]” for “trypan blue.”

HSB-2 = assay: Proliferation (3H-thymidine) of HSB-2
Text: as §2
as §1, with “Cells were cultured in a 96-well plate (Corning Costar, Corning, N.Y., USA) with various concentrations of TLR ligands 1-9, starting at 10 μg/ml, in a final volume of 200 ul. TLR ligands” for “TLR ligands”
(§3) The following TLR ligands were purchased from Invivogen (San Diego, Calif., USA): tripalmitoyl-S-(bis(palmitoyloxy)propyl)-Cys-Ser-(Lys)3-Lys (TLR1-2); Poly I:C (TLR3); ultrapure S. Minnesota Lipopolysaccharide (TLR4); S. typhimurium flagellin (TLR5); FSL-1 (TLR2/6); Imiquimod (TLR7); ssRNA40/Lyovec (TLR8); CpG-ODN 2006 (TLR9).

A375 cells = assay: Western blot of IRAK phosphorylation in A375; conditions: 48 hours
Procedure: (§4) FIG. 22. Effects of TLR stimulation and cytokines on IRAK phosphorylation in melanoma cells. (A) A375 cells were cultured in the presence of anti-IL-18, anti-CXCL-1, (R&D Systems), anti-IL-1 (BioLegend), or mouse IgG (Sigma-Aldrich) all at 10 μg/ml. Forty-eight hours later the levels of the indicated proteins were determined by western blot. (B) A375 cells, which express p-IRAK-1 and p-IRAK-4, and G361 melanoma cells, which express very low levels of p-IRAK-1 (and express TLR5) were cultured in the presence of TLR1-TLR2 agonist (Pam3CysK4; 2.5 μg/ml) or TLR5 (flagellin; 100 ng/ml; InVivogen). Forty-eight hours later total protein was collected and the levels of the indicated proteins were examined by western blot.
(§5) Total cell extracts were prepared from melanoma cells. […] Melanoma tissue arrays were purchased from US Biomax, Inc (Rockville, Md.). For immunohistochemical staining samples were stained with mouse monoclonal anti-human phosphor-IRAK.-4 antibody (Abnova; dilution, 3.5 μg/ml) or normal mouse serum. Tissue histology sections (5-μm-thick) were deparaffinized, hydrated, heated in boiling 10 mmol/L sodium citrate (pH 6.0), for antigen retrieval, for 30 min and washed in Tris buffer. Peroxide blocking was done with 3% […] in methanol at room temperature for 15 min, followed by 10% fetal bovine serum in TBS-t for 30 min at room temperature. Primary antibody incubation was done overnight at 4° C. Secondary antibody incubation with horse anti-mouse (1:200; Vector Laboratories, Burlingame, Calif.) was done for 1 hr, followed by application of diaminobenzidine chromogen for 5 min. The slides were then counterstained with hematoxylin and topped with a coverslip. IHC specimens were analyzed using “quick score” system in which the intensity of the immunohistochemical reaction was scored by multiplying the intensity 1 (weak), 2 (moderate), and 3 (strong) and the proportion of cells staining positively 0 (<10%), 1 (10-25%), 2 (26-50%), 3 (51-75%) or 4 (>75%).

Molt-4 = assay: Proliferation (3H-thymidine) of Molt-4; conditions: 3H-thymidine uptake, 72 h
Text: as §2, with “In other experiments, protein lysate was collected using the Full Moon Biosystems (Sunnyvale, Calif., USA) buffer prior to protein examination by western blot or protein array.” left out
(§6) Cells were cultured in a 96-well plate (Corning Costar, Corning, N.Y., USA) with various concentrations of TLR ligands 1-9, starting at 10 μg/ml, in a final volume of 200 ul. […] After this time point, cells were harvested with a Packard Filter-Mate-96 cell harvester (Perkin Elmer, Waltham, Mass., USA) and counted on Packard Top Count-NXT (Perkin Elmer, Waltham, Mass., USA). Results were expressed as average counts per minute (cpm). […] Forty-eight hours later, proliferation (±SD) was determined by ^3H-thymidine incorporation. Alternatively, apoptosis was measured by flow cytometry after staining cells with Annexin-V (BD Pharmingen, San Diego, Calif., USA) and propidium iodide (Sigma). Cell number was counted under microscopy by staining cells with trypan blue. […]

Hut-78 = assay: Proliferation (3H-thymidine) of Hut-78; conditions: 3H-thymidine uptake, 72 h
Text: as §2, with “In other experiments, protein lysate was collected using the Full Moon Biosystems (Sunnyvale, Calif., USA) buffer prior to protein examination by western blot or protein array.” left out
as §6

Primary T-cells Non-Act = assay: Proliferation (3H-thymidine) of non-activated primary T-cells; conditions: 3H-thymidine uptake, 72 h
Text: as §2, with “In other experiments, protein lysate was collected using the Full Moon Biosystems (Sunnyvale, Calif., USA) buffer prior to protein examination by western blot or protein array.” left out
as §6

CEM-C7 = assay: Proliferation (3H-thymidine) of CEM-C7
Text: as §2
as §1, with “Cells were cultured in a 96-well plate (Corning Costar, Corning, N.Y., USA) with various concentrations of TLR ligands 1-9, starting at 10 μg/ml, in a final volume of 200 ul. TLR ligands” for “TLR ligands”
as §3

Hut 102 = assay: Proliferation (3H-thymidine) of Hut 102; conditions: 3H-thymidine uptake, 72 h
Text: as §2, with “In other experiments, protein lysate was collected using the Full Moon Biosystems (Sunnyvale, Calif., USA) buffer prior to protein examination by western blot or protein array.” left out
as §6

SupT1 = assay: Proliferation (3H-thymidine) of SupT1; conditions: SupT1; 3H-thymidine uptake, 72 h
Text: as §2
as §1, with “Cells were cultured in a 96-well plate (Corning Costar, Corning, N.Y., USA) with various concentrations of TLR ligands 1-9, starting at 10 μg/ml, in a final volume of 200 ul. TLR ligands” for “TLR ligands”
as §3

CEM-C2 = assay: Proliferation (3H-thymidine) of CEM-C2; conditions: 3H-thymidine uptake, 72 h
Text: as §2
as §1, with “Cells were cultured in a 96-well plate (Corning Costar, Corning, N.Y., USA) with various concentrations of TLR ligands 1-9, starting at 10 μg/ml, in a final volume of 200 ul. TLR ligands” for “TLR ligands”, “trypan blue. […]” for “trypan blue.”

MO = assay: Proliferation (3H-thymidine) of MO; conditions: 3H-thymidine uptake, 72 h
Text: as §2, with “In other experiments, protein lysate was collected using the Full Moon Biosystems (Sunnyvale, Calif., USA) buffer prior to protein examination by western blot or protein array.” left out
as §6

G361 melanoma cells = assay: Western blot of IRAK phosphorylation in G361; conditions: 48 hours
Procedure: as §4, §5

Jurkat = assay: Proliferation (3H-thymidine) of Jurkat; conditions: 3H-thymidine uptake, 72 h
Text: as §2
as §1, with “Cells were cultured in a 96-well plate (Corning Costar, Corning, N.Y., USA) with various concentrations of TLR ligands 1-9, starting at 10 μg/ml, in a final volume of 200 ul. TLR ligands” for “TLR ligands”, “trypan blue. […]” for “trypan blue.”

CCRF-CEM = assay: Proliferation (3H-thymidine) of CCRF-CEM; conditions: 3H-thymidine uptake, 72 h
Text: as §2
as §1, with “Cells were cultured in a 96-well plate (Corning Costar, Corning, N.Y., USA) with various concentrations of TLR ligands 1-9, starting at 10 μg/ml, in a final volume of 200 ul. TLR ligands” for “TLR ligands”
as §3

HH = assay: Proliferation (3H-thymidine) of HH; conditions: 3H-thymidine uptake, 72 h
Text: as §2, with “In other experiments, protein lysate was collected using the Full Moon Biosystems (Sunnyvale, Calif., USA) buffer prior to protein examination by western blot or protein array.” left out
as §6

H9 = assay: Proliferation (3H-thymidine) of H9; conditions: H9
Text: as §2
as §1, with “Cells were cultured in a 96-well plate (Corning Costar, Corning, N.Y., USA) with various concentrations of TLR ligands 1-9, starting at 10 μg/ml, in a final volume of 200 ul. TLR ligands” for “TLR ligands”
as §3

[1] = system: Primary T-cells Activated; assay: Proliferation (3H-thymidine) of activated primary T-cells; conditions: Primary T-cells, Activated
Text: as §2
as §1, with “Cells were cultured in a 96-well plate (Corning Costar, Corning, N.Y., USA) with various concentrations of TLR ligands 1-9, starting at 10 μg/ml, in a final volume of 200 ul. TLR ligands” for “TLR ligands”
as §3

[2] = Pam3CysK4 2.5 μg/ml or flagellin 100 ng/ml, FIG. 22B

oligomicin
synergy with IRAK-1,-4 inhibitor (CCRF-CEM cells): No synergist effect

B1: Flagellin: S. typhimurium flagellin, TLR5 ligand (Invivogen) (protein, UniProt P06179 2-495, looked up)
Flagellin: AQVINTNSLSLLTQNNLNKSQSALGTAIERLSSGLRINSAKDDAAGQAIANRFTANIKGLTQASRNANDGISIAQTTEGALNEINNNLQRVRELAVQSANSTNSQSDLDSIQAEITQRLNEIDRVSGQTQFNGVKVLAQDNTLTIQVGANDGETIDIDLKQINSQTLGLDTLNVQQKYKVSDTAATVTGYADTTIALDNSTFKASATGLGGTDQKIDGDLKFDDTTGKYYAKVTVTGGTGKDGYYEVSVDKTNGEVTLAGGATSPLTGGLPATATEDVKNVQVANADLTEAKAALTAAGVTGTASVVKMSYTDNNGKTIDGGLAVKVGDDYYSATQNKDGSISINTTKYTADDGTSKTALNKLGGADGKTEVVSIGGKTYAASKAEGHNFKAQPDLAEAAATTTENPLQKIDAALAQVDTLRSDLGAVQNRFNSAITNLGNTVNNLTSARSRIEDSDYATEVSNMSRAQILQQAGTSVLAQANQVPQNVLSLLR
Proliferative effects of TLR ligands (CEM-C1): ∘
Proliferative effects of TLR ligands (Loucy): ∘
Proliferative effects of TLR ligands (HSB-2; 3H-thymidine uptake, 72 h): − (reduced proliferation)
TLR ligand concentration in parentheses below the symbol (HSB-2; no unit in table (μg/ml)): (10)
p-IRAK-1 or p-IRAK-4 expression levels (A375 cells; [2]): neither TLR-1-TLR2 agonist (Pam3CysK4), nor TLR5 (Flagellin) stimulation increased or induced
total and p-IRAK-4 levels (A375 cells; flagellin 100 ng/ml): reduced
Proliferative effects of TLR ligands (Molt-4): ∘
Proliferative effects of TLR ligands (Hut-78): ∘
Proliferative effects of TLR ligands (Primary T-cells Non-Act): ∘
Proliferative effects of TLR ligands (CEM-C7; 3H-thymidine uptake, 72 h): − (reduced proliferation)
TLR ligand concentration in parentheses below the symbol (CEM-C7; no unit in table (μg/ml)): (2.5)
Proliferative effects of TLR ligands (Hut 102): ∘
Proliferative effects of TLR ligands (SupT1): ∘
Proliferative effects of TLR ligands (CEM-C2): ∘
Proliferative effects of TLR ligands (MO): ∘
p-IRAK-1 or p-IRAK-4 expression levels (G361 melanoma cells; [2]): neither TLR-1-TLR2 agonist (Pam3CysK4), nor TLR5 (Flagellin) stimulation increased or induced
total and p-IRAK-4 levels (G361 melanoma cells; flagellin 100 ng/ml): reduced
Proliferative effects of TLR ligands (Jurkat): ∘
Proliferative effects of TLR ligands (CCRF-CEM): ∘
Proliferative effects of TLR ligands (HH): ∘
Proliferative effects of TLR ligands (H9; 3H-thymidine uptake, 72 h): − (reduced proliferation)
TLR ligand concentration in parentheses below the symbol (H9; no unit in table (μg/ml)): (10)
Proliferative effects of TLR ligands ([1]; 3H-thymidine uptake, 72 h): + (enhanced proliferation by 25% or greater)
TLR ligand concentration in parentheses below the symbol ([1]; no unit in table (μg/ml)): (10)
